Tested on: Escherichia coli TOP10
Assay: shrunken log2 fold change of peptide-encoding DNA abundance (4.5 h post-induction vs induction); higher = less antimicrobial activity (less host growth inhibition)
Settings: time post-induction: 4.5 h; library: site-saturation at positions 5, 18, 19, 20
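Also: peptides expressed intracellularly from a pBAD plasmid library in pooled LB shake-flask culture, induced with 0.3% L-arabinose, DNA abundance read by NGS, three biological replicates, DESeq2 with apeglm shrinkage.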

| Sequence | shrunken log2 fold change |
| --- | --- |
| RRIRSRPPRLPRPRPRPTTVPRP | 0.14 |
| RRIRYRPPRLPRPRPRPPWEPRP | -0.381 |
| RRIRSRPPRLPRPRPRPGGSPRP | 0.0707 |
| RRIRDRPPRLPRPRPRPQYHPRP | -0.47 |
| RRIRWRPPRLPRPRPRPRVSPRP | 0.158 |
| RRIRRRPPRLPRPRPRPLSGPRP | 0.379 |
| RRIRWRPPRLPRPRPRPSEMPRP | -0.148 |
| RRIRARPPRLPRPRPRPMFWPRP | 0.19 |
| RRIRMRPPRLPRPRPRPVRIPRP | 0.238 |
| RRIRMRPPRLPRPRPRPTTIPRP | -0.198 |
| RRIRIRPPRLPRPRPRPTAGPRP | -0.167 |
| RRIRERPPRLPRPRPRPNPYPRP | -0.304 |
| RRIRGRPPRLPRPRPRPMNEPRP | 0.056 |
| RRIRWRPPRLPRPRPRPMKTPRP | -0.0156 |
| RRIRPRPPRLPRPRPRPSYYPRP | -0.721 |
| RRIRYRPPRLPRPRPRPEVCPRP | -0.0334 |
| RRIRKRPPRLPRPRPRPKCVPRP | 0.52 |
| RRIRIRPPRLPRPRPRPQRLPRP | 0.0966 |
| RRIRVRPPRLPRPRPRPFDPPRP | -0.0153 |
| RRIRTRPPRLPRPRPRPCMDPRP | -0.459 |
| RRIRSRPPRLPRPRPRPASHPRP | -0.167 |
| RRIRARPPRLPRPRPRPLTGPRP | 0.172 |
| RRIRDRPPRLPRPRPRPIFCPRP | -0.0484 |
| RRIRERPPRLPRPRPRPRLSPRP | 0.134 |
| RRIRLRPPRLPRPRPRPWQGPRP | -0.00192 |

| Sequence | shrunken log2 fold change |
| --- | --- |
| RRIRQRPPRLPRPRPRPCTHPRP | -0.502 |
| RRIRMRPPRLPRPRPRPKGCPRP | -0.0257 |
| RRIRRRPPRLPRPRPRPHAFPRP | -0.103 |
| RRIRRRPPRLPRPRPRPDPSPRP | 0.213 |
| RRIRLRPPRLPRPRPRPRVHPRP | 0.0142 |
| RRIRLRPPRLPRPRPRPSVLPRP | -0.779 |
| RRIRTRPPRLPRPRPRPEFKPRP | 0.0563 |
| RRIRVRPPRLPRPRPRPWLDPRP | 0.183 |
| RRIRRRPPRLPRPRPRPETVPRP | -0.11 |
| RRIRNRPPRLPRPRPRPIYLPRP | -0.376 |
| RRIRMRPPRLPRPRPRPSNAPRP | 0.405 |
| RRIRNRPPRLPRPRPRPQTDPRP | -0.19 |
| RRIRYRPPRLPRPRPRPEIMPRP | -0.272 |
| RRIRIRPPRLPRPRPRPISIPRP | 0.0772 |
| RRIRMRPPRLPRPRPRPNGCPRP | 0.254 |
| RRIRTRPPRLPRPRPRPVKVPRP | 0.00854 |
| RRIRFRPPRLPRPRPRPTGPPRP | 0.445 |
| RRIRIRPPRLPRPRPRPCDRPRP | -0.563 |
| RRIRTRPPRLPRPRPRPIWCPRP | -0.0116 |
| RRIRTRPPRLPRPRPRPTAGPRP | 0.59 |
| RRIRWRPPRLPRPRPRPWYKPRP | -0.1 |
| RRIRNRPPRLPRPRPRPIQSPRP | -0.216 |
| RRIRMRPPRLPRPRPRPTTCPRP | 0.0613 |
| RRIRRRPPRLPRPRPRPPIIPRP | 0.164 |
| RRIRERPPRLPRPRPRPCVGPRP | -0.278 |
